Biological target: T1, rProtein A Sepharose FF (Staphylococcus aureus, UniProt P38507 37-327)
T1 construct: the protein ligand is immobilized on agarose beads; also called rProtein A Sepharose 4 FF
Assay: microtiter plate column chromatography, Bradford assay; Bound (%)

B1: Bevacizumab Fab fragment (Fab, V domains shown)
VH: EVQLVESGGGLVQPGGSLRLSCAASGYTFTNYGMNWVRQAPGKGLEWVGWINTYTGEPTYAADFKRRFTFSLDTSKSTAYLQMNSLRAEDTAVYYCAKYPHYYGSSHWYFDVWGQGTLVTVSS
VL: DIQMTQSPSSLSASVGDRVTITCSASQDISNYLNWYQQKPGKAPKVLIYFTSSLHSGVPSRFSGSGSGTDFTLTISSLQPEDFATYYCQQYSTVPWTFGQGTKVEIKR
notes: also called Fab fragments
  binding result: no binding
